Experimental data from patent CN114106182A (ZHONGSHAN KANGFARE BIOLOGICAL MEDICINE CO LTD, dated 2022).
One block for each binder: values may come before it.

What was measured:
human TIGIT-mFc [1] = target: T1, human TIGIT-mFc (human; mouse, UniProt Q495A1 22-141, limits assumed); assay: indirect ELISA, TIGIT-mFc captured by goat anti-mouse IgG Fc (Table 1 experiment)
T1 construct: Made in house (Akeso, lot 20171110); also called 人TIGIT-mFc; not shown: Fc fragment of mouse IgG (mFc)
T1 sequence (looked up): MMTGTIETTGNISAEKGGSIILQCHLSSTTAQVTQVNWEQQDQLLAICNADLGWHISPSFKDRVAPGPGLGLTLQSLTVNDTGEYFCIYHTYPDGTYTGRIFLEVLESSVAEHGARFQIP

human TIGIT-mFc [2] = target: T1, human TIGIT-mFc; assay: competition ELISA on coated TIGIT-mFc; competitor CD155-hFc-Biotin (Table 3 experiment)
human TIGIT-mFc [3] = target: T1, human TIGIT-mFc; assay: BLI (Fortebio), antibody on AHC sensor, TIGIT-mFc 0.62-50 nM, 1:1 fit, 37 degrees
human TIGIT-mFc [4] = target: T1, human TIGIT-mFc; assay: indirect ELISA, TIGIT-mFc captured by goat anti-mouse IgG Fc (Table 2 experiment)
human TIGIT-mFc [5] = target: T1, human TIGIT-mFc; assay: competition ELISA on coated TIGIT-mFc; competitor CD155-hFc-Biotin (Table 4 experiment)
[6] = target: T2, TIGIT antigen on the surface of 293T-TIGIT cells (human, UniProt Q495A1 22-244); assay: FACS competition on 293T-TIGIT cells; competitor CD112-mG1Fc (30 nM)
T2 construct: whole, on cells; also called Jurkat-TIGIT (TIGITFL)
T2 sequence (looked up): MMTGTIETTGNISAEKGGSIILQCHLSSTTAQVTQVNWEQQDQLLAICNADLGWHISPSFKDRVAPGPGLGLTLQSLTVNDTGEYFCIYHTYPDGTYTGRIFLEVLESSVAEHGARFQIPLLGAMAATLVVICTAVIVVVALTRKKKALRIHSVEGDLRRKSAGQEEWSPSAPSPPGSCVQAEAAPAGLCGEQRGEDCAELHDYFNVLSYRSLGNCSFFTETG

[7] = target: T2, TIGIT antigen on the surface of …; assay: FACS competition on 293T-TIGIT cells; competitor CD155-mG1Fc (10 nM)
[8] = target: T2, TIGIT antigen on the surface of …; assay: flow cytometry on 293T-TIGIT cells, FITC goat anti-human IgG
human TIGIT-mFc [9] = target: T1, human TIGIT-mFc; assay: indirect ELISA screening of hybridomas on human TIGIT-mFc

B1: BMS 22G2 (antibody, human IgG1, kappa, V domains shown)
VH: QVQLQESGPGLVKPSETLSLTCTVSGGSVSSGIYYWSWIRQPPGKGLEWIGYIYYSGSTNYNPSLKSRVTISVDTSKNQFSLKLSSVTAADTAVYYCARDYYVSGNYYNVDYYFFGVDVWGQGTTVTVSS
VL: EIVLTQSPATLSLSPGERATLSCRASQSVSSYLAWYQQKPGQAPRLLIYDASNRATGIPARFSGSGSGTDFTLTISSLEPEDFAVYYCQQRSNWPPLFTFGPGTKVDIKR
notes: Positive control anti-TIGIT antibody
EC50 (human TIGIT-mFc [1]): 0.017 nM | EC50 (human TIGIT-mFc [2]): 0.513 nM

B2: BMS 22G2(G1DM) (antibody, V domains shown)
VH: B1 VH
VL: EIVLTQSPATLSLSPGERATLSCRASQSVSSYLAWYQQKPGQAPRLLIYDASNRATGIPARFSGSGSGTDFTLTISSLEPEDFAVYYCQQRSNWPPLFTFGPGTKVDIK
Kd (human TIGIT-mFc [3]): 0.628 nM

Second part, the binder after the results:

EC50 (human TIGIT-mFc [4]): 0.017 nM | EC50 (human TIGIT-mFc [5]): 0.425 nM | EC50 [6]: 1.29 nM | EC50 [7]: 1.22 nM | EC50 [8]: 1.15 nM | Kd (human TIGIT-mFc [3]): 0.847 nM
B3: RG6058(G1DM) (antibody, human IgG1, kappa, L234A L235A, V domains shown)
VH: EVQLQQSGPGLVKPSQTLSLTCAISGDSVSSNSAAWNWIRQSPSRGLEWLGKTYYRFKWYSDYAVSVKGRITINPDTSKNQFSLQLNSVTPEDTAVFYCTRESTTYDLLAGPFDYWGQGTLVTVSS
VL: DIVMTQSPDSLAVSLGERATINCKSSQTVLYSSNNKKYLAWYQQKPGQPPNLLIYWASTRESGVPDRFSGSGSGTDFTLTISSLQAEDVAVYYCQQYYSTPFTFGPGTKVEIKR
notes: Positive control anti-TIGIT antibody (Tiragolumab variable regions, G1DM constant region)

binding result (human TIGIT-mFc [9]): binds
B4: 26B12 (antibody, V domains shown)
VH: EVQLQESGPGLVKPSQSLSLTCTVTGHSFTSDYAWNWIRQFPGNRLEWMGYISYSDSTNYNPSLKSRISITRDTSKNQFFLQMNSVTTEDTATYYCARLDYGNYGGAMDYWGQGTSVTVSS
VL: DIVLTQSHEFMSTSLRDRVSITCKSSQHVSTAVAWYQQKPGQSPKLLIYSASYRYTGVPDRFTGSGSGTDFTFTISSVKAEDLAVYYCQQHYITPWTFGGGTKLEIK
notes: Mouse monoclonal antibody from hybridoma; also called monoclonal antibody secreted by hybridoma LT019 (CCTCC NO: C2020208)
